Here are results for 25 molecules from patent US9708383 (Novo Nordisk, dated 2017).

*1 amine or outer side, *2 acyl side, *3 side chain or, on linkers, in order; H or OH if unused. Where no end group is shown, it is not given here. Side-chain parts run from the residue outwards. [ ]: non-standard residue; d: D form. The star is where a group is joined. Decanoyl(10-(4-HOOC-PhO)) = O=C(O)c1ccc(OCCCCCCCCCC(=O)*)cc1; C16 diacid = O=C(O)CCCCCCCCCCCCCCC(=O)*; γGlu = O=C(O)[C@H](CCC(=O)[*:2])N[*:1]; Desaminohistidyl = O=C(CCc1c[nH]cn1)*; Hexanoyl(6-Ph) = O=C(CCCCCc1ccccc1)*; C12 diacid = O=C(O)CCCCCCCCCCC(=O)*; 13‑carboxytridecanoyl = C14 diacid; Butanoyl(4-Ph) = O=C(CCCc1ccccc1)*; 12Ado = NCCCCCCCCCCCC(=O)O; AEEA = NCCOCCOCC(=O)O; Aib = CC(C)(N)C(=O)O; Aoc = NCCCCCCCC(=O)O Bounds are passed on as bounds.

Test [1] addresses T1, human GLP-1 receptor (human, UniProt P43220 24-463).
T1 construct: whole, on cells; Used as purified membranes of the transfected hamster cells, not whole cells; also called hGLP-1
In words: SPA, 2.0% vs 0.005% HSA.

Test [2] deals with T1, human GLP-1 receptor. Put plainly: SPA, displacement of 125I-GLP-1(7-36)NH2, 0.005% HSA.

Take [Desaminohistidyl]AEGTFTSDVSK([AEEA-AEEA-γGlu-C12 diacid])YLEEQAVREFIAK([AEEA-AEEA-γGlu-C12 diacid])LVG [GLP-1 derivative of Example 13: [Imp7,Lys18,Glu22,Val25,Arg26,Lys31,Gly34]-GLP-1-(7-34)-peptide]: the “ratio IC50 high HSA/IC50 low HSA” value in the test with human GLP-1 receptor [1] is greater than 1. The IC50 in the test with human GLP-1 receptor [2] is less than 1000 nM.
On the same counts, the results for H[Aib]EGTFTSDVSK([AEEA-AEEA-γGlu-Decanoyl(10-(4-HOOC-PhO))])YLEEQAAK([AEEA-AEEA-γGlu-Decanoyl(10-(4-HOOC-PhO))])EFIAWLVRG [GLP-1 derivative of Example 140: [Aib8,Lys18,Glu22,Arg34]-GLP-1-(7-35)-peptide] are greater than 1 and less than 1000 nM.
Regarding HAEGTFTSDVSK([AEEA-AEEA-γGlu-C12 diacid])YLEEQAVREFIAK([AEEA-AEEA-γGlu-C12 diacid])LVG [GLP-1 derivative of Example 11: [Lys18,Glu22,Val25,Arg26,Lys31,Gly34]-GLP-1-(7-34)-peptide], in the test with human GLP-1 receptor [1], the “ratio IC50 high HSA/IC50 low HSA” value is greater than 1. For the same molecule, the IC50 with human GLP-1 receptor [2] is less than 1000 nM.
The matching figures for HAEGTFTSDVSK([AEEA-AEEA-γGlu-C12 diacid])YLEEQAVREFIAHLVK([AEEA-AEEA-γGlu-C12 diacid]) [GLP-1 derivative of Example 66: [Lys18,Glu22,Val25,Arg26,His31]-GLP-1-(7-34)-peptide]: greater than 1 and less than 1000 nM.
On the same counts, the results for H[Aib]EGTFTSDVSK([AEEA-AEEA-γGlu-C16 diacid])YLEEQAAK([AEEA-AEEA-γGlu-C16 diacid])EFIAWLVQGRG [GLP-1 derivative of Example 143: [Aib8,Lys18,Glu22,Gln34]-GLP-1-(7-37)-peptide] are greater than 1 and less than 1000 nM.
The matching figures for H[Aib]EGTFTSDVSK([AEEA-AEEA-γGlu-Aoc-γGlu-Hexanoyl(6-Ph)])YLEEQAAK([AEEA-AEEA-γGlu-Aoc-γGlu-Hexanoyl(6-Ph)])EFIAWLVQGRG [GLP-1 derivative of Example 127: [Aib8,Lys18,Glu22,Gln34]-GLP-1-(7-37)-peptide]: greater than 1 and less than 1000 nM.
On to H[Aib]EGTFTSDVSK([AEEA-AEEA-γGlu-C16 diacid])YLEEQAAK([AEEA-AEEA-γGlu-C16 diacid])EFIAWLVRG [GLP-1 derivative of Example 138: [Aib8,Lys18,Glu22,Arg34]-GLP-1-(7-35)-peptide], for which, in the test with human GLP-1 receptor [1], the “ratio IC50 high HSA/IC50 low HSA” value was greater than 1. The molecule further showed an IC50 in the test with human GLP-1 receptor [2] of less than 1000 nM.
On the same counts, the results for H[Aib]EGTFTSDVSK([AEEA-AEEA-γGlu-13‑carboxytridecanoyl])YLEGQAAHEFIK([AEEA-AEEA-γGlu-13‑carboxytridecanoyl])WLVRG [GLP-1 derivative of Example 81: [Aib8,Lys18,His26,Lys30,Arg34]-GLP-1-(7-35)-peptide] are greater than 1 and less than 1000 nM.
The matching figures for H[Aib]EGTFTSDVSK([AEEA-AEEA-γGlu-13‑carboxytridecanoyl])YLEEQAAREFIK([AEEA-AEEA-γGlu-13‑carboxytridecanoyl])WLVRG [GLP-1 derivative of Example 83: [Aib8,Lys18,Glu22,Arg26,Lys30,Arg34]-GLP-1-(7-35)-peptide]: greater than 1 and less than 1000 nM.

B1: GLP-1 derivative of Example 132: [Aib8,Lys8,Glu22,Gln34]-GLP-1-(7-37)-peptide amide (peptide)
peptide: H[Aib]EGTFTSDVSK([AEEA-AEEA-γGlu-Decanoyl(10-(4-HOOC-PhO))])YLEEQAAK([AEEA-AEEA-γGlu-Decanoyl(10-(4-HOOC-PhO))])EFIAWLVQGRG-NH2
modifications: N-terminus assumed
SMILES: CC[C@H](C)[C@H](NC(=O)[C@H](Cc1ccccc1)NC(=O)[C@H](CCC(=O)O)NC(=O)[C@H](CCCCNC(=O)COCCOCCNC(=O)COCCOCCNC(=O)CC[C@H](NC(=O)CCCCCCCCCOc1ccc(C(=O)O)cc1)C(=O)O)NC(=O)[C@H](C)NC(=O)[C@H](C)NC(=O)[C@H](CCC(N)=O)NC(=O)[C@H](CCC(=O)O)NC(=O)[C@H](CCC(=O)O)NC(=O)[C@H](CC(C)C)NC(=O)[C@H](Cc1ccc(O)cc1)NC(=O)[C@H](CCCCNC(=O)COCCOCCNC(=O)COCCOCCNC(=O)CC[C@H](NC(=O)CCCCCCCCCOc1ccc(C(=O)O)cc1)C(=O)O)NC(=O)[C@H](CO)NC(=O)[C@@H](NC(=O)[C@H](CC(=O)O)NC(=O)[C@H](CO)NC(=O)[C@@H](NC(=O)[C@H](Cc1ccccc1)NC(=O)[C@@H](NC(=O)CNC(=O)[C@H](CCC(=O)O)NC(=O)C(C)(C)NC(=O)[C@@H](N)Cc1c[nH]cn1)[C@@H](C)O)[C@@H](C)O)C(C)C)C(=O)N[C@@H](C)C(=O)N[C@@H](Cc1c[nH]c2ccccc12)C(=O)N[C@@H](CC(C)C)C(=O)N[C@H](C(=O)N[C@@H](CCC(N)=O)C(=O)NCC(=O)N[C@@H](CCCNC(=N)N)C(=O)NCC(N)=O)C(C)C
notes: Name prints Lys8, evidently Lys18
Turning to B1, the “ratio IC50 high HSA/IC50 low HSA” value with human GLP-1 receptor [1] is greater than 1. In addition, in the test with human GLP-1 receptor [2], the IC50 is less than 1000 nM.
On the same counts, the results for H[Aib]EGTFTSDVSK([AEEA-AEEA-γGlu-Hexanoyl(6-Ph)])YLEEQAAK([AEEA-AEEA-γGlu-Hexanoyl(6-Ph)])EFIAWLVQGRG [GLP-1 derivative of Example 123: [Aib8,Lys18,Glu22,Gln34]-GLP-1-(7-37)-peptide] are greater than 1 and less than 1000 nM.
On the same counts, the results for H[Aib]EGTFTSDVSK([AEEA-AEEA-γGlu-4‑(4-nitrophenyl)butanoyl])YLEEQAAK([AEEA-AEEA-γGlu-4‑(4-nitrophenyl)butanoyl])EFIAWLVQGRG [GLP-1 derivative of Example 122: [Aib8,Lys18,Glu22,Gln34]-GLP-1-(7-37)-peptide] are greater than 1 and less than 1000 nM.
On the same counts, the results for [Desaminohistidyl]AEGTFTSDVSK([AEEA-AEEA-γGlu-Decanoyl(10-(4-HOOC-PhO))])YLEEQAAK([AEEA-AEEA-γGlu-Decanoyl(10-(4-HOOC-PhO))])EFIAWLVQGRG [GLP-1 derivative of Example 136: [Imp7,Lys18,Glu22,Gln34]-GLP-1-(7-37)-peptide] are greater than 1 and less than 1000 nM.
Take [Desaminohistidyl]AEGTFTSDVSK([AEEA-AEEA-γGlu-C16 diacid])YLEEQAARK([AEEA-AEEA-γGlu-C16 diacid])FIAWLVQGRG [GLP-1 derivative of Example 147: [Imp7,Lys18,Glu22,Arg26,Lys27,Gln34]-GLP-1-(7-37)-peptide]: the “ratio IC50 high HSA/IC50 low HSA” value with human GLP-1 receptor [1] was greater than 1. In the test with human GLP-1 receptor [2], this molecule gave an IC50 of less than 1000 nM.
The matching figures for [Desaminohistidyl]AEGTFTSDVSK([AEEA-AEEA-γGlu-Decanoyl(10-(4-HOOC-PhO))])YLEEQAAREFIAWLVRGRK([AEEA-AEEA-γGlu-Decanoyl(10-(4-HOOC-PhO))]) [GLP-1 derivative of Example 4: [Imp7,Lys18,Glu22,Arg26,Arg34,Lys37]-GLP-1-(7-37)-peptide]: greater than 1 and less than 1000 nM.
Regarding H[Aib]EGTFTSDVSK([AEEA-AEEA-γGlu-Aoc-γGlu-Butanoyl(4-Ph)])YLEEQAAK([AEEA-AEEA-γGlu-Aoc-γGlu-Butanoyl(4-Ph)])EFIAWLVQGRG [GLP-1 derivative of Example 109: [Aib8,Lys18,Glu22,Gln34]-GLP-1-(7-37)-peptide], in the test with human GLP-1 receptor [1], the “ratio IC50 high HSA/IC50 low HSA” value is greater than 1. The IC50 with human GLP-1 receptor [2] is less than 1000 nM.
The matching figures for H[Aib]EGTFTSDVSK([AEEA-AEEA-γGlu-4‑(4-chlorophenyl)butanoyl])YLEEQAAK([AEEA-AEEA-γGlu-4‑(4-chlorophenyl)butanoyl])EFIAWLVQGRG [GLP-1 derivative of Example 121: [Aib8,Lys18,Glu22,Gln34]-GLP-1-(7-37)-peptide]: greater than 1 and less than 1000 nM.
The matching figures for [Desaminohistidyl]AEGTFTSDVSK([AEEA-AEEA-γGlu-13‑carboxytridecanoyl])YLEEQAVREFIAK([AEEA-AEEA-γGlu-13‑carboxytridecanoyl])LVG [GLP-1 derivative of Example 12: [Imp7,Lys18,Glu22,Val25,Arg26,Lys31,Gly34]-GLP-1-(7-34)-peptide]: greater than 1 and less than 1000 nM.
The matching figures for H[Aib]EGTFTSDVSK([AEEA-AEEA-γGlu-13‑carboxytridecanoyl])YLEEQAVREFIAK([AEEA-AEEA-γGlu-13‑carboxytridecanoyl])LVG [GLP-1 derivative of Example 5: [Aib8,Lys18,Glu22,Val25,Arg26,Lys31,Gly34]-GLP-1-(7-34)-peptide]: greater than 1 and less than 1000 nM.
With H[Aib]EGTFTSDVSK([AEEA-AEEA-γGlu-13‑carboxytridecanoyl])YLEEQAVREFIEK([AEEA-AEEA-γGlu-13‑carboxytridecanoyl])LVG [GLP-1 derivative of Example 6: [Aib8,Lys18,Glu22,Val25,Arg26,Glu30,Lys31,Gly34]-GLP-1-(7-34)-peptide], the “ratio IC50 high HSA/IC50 low HSA” value with human GLP-1 receptor [1] was greater than 1. This molecule had an IC50 with human GLP-1 receptor [2] of less than 1000 nM.
For H[Aib]EGTFTSDVSK([AEEA-AEEA-γGlu-13‑carboxytridecanoyl])YLEEQAVHEFIAK([AEEA-AEEA-γGlu-13‑carboxytridecanoyl])LVG [GLP-1 derivative of Example 7: [Aib8,Lys18,Glu22,Val25,His26,Lys31,Gly34]-GLP-1-(7-34)-peptide], the “ratio IC50 high HSA/IC50 low HSA” value with human GLP-1 receptor [1] is greater than 1. In addition, the IC50 with human GLP-1 receptor [2] was less than 1000 nM.
The matching figures for H[Aib]EGTFTSDVSK([AEEA-AEEA-γGlu-13‑carboxytridecanoyl])YLEEQAAREFIAK([AEEA-AEEA-γGlu-13‑carboxytridecanoyl])LVG [GLP-1 derivative of Example 16: [Aib8,Lys18,Glu22,Arg26,Lys31,Gly34]-GLP-1-(7-34)-peptide]: greater than 1 and less than 1000 nM.
HAEGTFTSDVSK([γGlu-AEEA-AEEA-13‑carboxytridecanoyl])YLEEQAAREFIAK([γGlu-AEEA-AEEA-13‑carboxytridecanoyl])LVRGRG [GLP-1 derivative of Example 116: [Lys18,Glu22,Arg26,Lys31,Arg34]-GLP-1-(7-37)-peptide]: in the test with human GLP-1 receptor [1], the “ratio IC50 high HSA/IC50 low HSA” value was greater than 1. The IC50 with human GLP-1 receptor [2] was less than 1000 nM.
As to H[Aib]EGTFTSDVSK([AEEA-AEEA-γGlu-12Ado-γGlu-Butanoyl(4-Ph)])YLEEQAAK([AEEA-AEEA-γGlu-12Ado-γGlu-Butanoyl(4-Ph)])EFIAWLVQGRG [GLP-1 derivative of Example 113: [Aib8,Lys18,Glu22,Gln34]-GLP-1-(7-37)-peptide], the “ratio IC50 high HSA/IC50 low HSA” value with human GLP-1 receptor [1] is greater than 1. Moreover, the IC50 in the test with human GLP-1 receptor [2] was less than 1000 nM.
H[Aib]EGTFTSDVSK([AEEA-AEEA-γGlu-12Ado-γGlu-2‑phenylacetyl])YLEEQAAK([AEEA-AEEA-γGlu-12Ado-γGlu-2‑phenylacetyl])EFIAWLVQGRG [GLP-1 derivative of Example 128: [Aib8,Lys18,Glu22,Gln34]-GLP-1-(7-37)-peptide]: in the test with human GLP-1 receptor [1], the “ratio IC50 high HSA/IC50 low HSA” value was greater than 1. The 50% inhibitory concentration (IC50) in the test with human GLP-1 receptor [2] was less than 1000 nM.
